# Laboratory results as given in publication doi:10.1101/2020.03.30.016881 (bioRxiv, 2020).
# No end group written: not given here. TMR = tetramethylrhodamine (5,6-carboxy TMR) linked to N-terminus
# Molecular target: E. coli DnaK (Hsp70), unlabelled (E. coli, UniProt P0A6Y8 1-638)
# Assay: fluorescence polarisation
# Chain of E. coli DnaK (Hsp70), unlabelled (P0A6Y8 whole entry): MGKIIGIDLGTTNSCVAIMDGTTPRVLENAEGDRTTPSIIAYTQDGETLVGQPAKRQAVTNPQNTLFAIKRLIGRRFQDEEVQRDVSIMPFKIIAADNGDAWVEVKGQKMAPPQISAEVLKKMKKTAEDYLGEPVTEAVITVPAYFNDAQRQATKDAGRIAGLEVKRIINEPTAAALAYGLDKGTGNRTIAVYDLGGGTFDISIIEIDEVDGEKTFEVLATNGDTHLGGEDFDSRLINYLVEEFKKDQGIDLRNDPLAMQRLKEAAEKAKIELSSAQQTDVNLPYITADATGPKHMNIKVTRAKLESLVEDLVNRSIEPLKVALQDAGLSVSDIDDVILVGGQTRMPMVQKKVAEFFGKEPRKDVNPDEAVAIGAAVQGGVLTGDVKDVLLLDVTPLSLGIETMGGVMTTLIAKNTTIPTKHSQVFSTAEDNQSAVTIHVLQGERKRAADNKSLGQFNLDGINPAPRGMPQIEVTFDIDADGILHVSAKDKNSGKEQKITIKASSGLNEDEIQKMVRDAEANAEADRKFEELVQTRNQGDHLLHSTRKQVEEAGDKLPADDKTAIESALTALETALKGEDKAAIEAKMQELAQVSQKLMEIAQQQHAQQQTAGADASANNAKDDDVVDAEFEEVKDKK
binder,measurement,value
{TMR}-KCNTATCATQRLANFLVHSSNNFGAILSSTNVGSNTY (ends and bridges not checked) [TMR-IAPP (human IAPP labelled with tetramethylrhodamine at the N-terminus)],Kd,2100 ± 900 nM
